Ends that are not written are not given here.
Target: T1, GST-KIXY650A (Y650A variant of CBP KIX) (UniProt P45481 586-665, limits assumed)
T1 construct: domain: KIX; not shown: GST tag
Experiment: fluorescence polarization, 25 nM fluorescein-labelled peptide, GST-KIXY650A titrated

T1 sequence (P45481 586-665 Y650A limits assumed): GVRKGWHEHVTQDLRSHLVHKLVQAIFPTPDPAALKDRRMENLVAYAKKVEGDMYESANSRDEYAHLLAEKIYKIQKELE

B1: PPKID6^U (designed binder)
peptide: GISWPTFEGDDAPVRRLSFFYILLDLYLDAPGVC(acetamidofluorescein)-NH2
notes: also called PPKID6 (unphosphorylated)
EC50 (read off the curve): ~700 nM
